The values below come from patent publication US20240002475A1 (ROCKEFELLER UNIVERSITY, published 2024).

For this experiment, the target named is green fluorescent protein (GFP), recombinant (Aequorea victoria, UniProt P42212 1-238 = GFP). The experiment in a line: not stated there (SPR or in vitro binding assay).

B1: LaG-41 (VHH)
VHH: DVQLVESGGGLVQAGGSLRLSCAASGPTGAMAWFRQAPGKEREFVGGISGSETDTYYVDSVKGRFTVDRDNVKNTVYLQMNSLKPEDTAVYYCAARRRITLFTSRTDYDFWGRGTQVTV
As to B1, the Kd (as a rule, the concentration at which binding is half-saturated) stood at 0.9 nM.
